From publication PMC3138737, “Interaction between the Triglyceride Lipase ATGL and the Arf1 Activator GBF1” (PLoS ONE, 2011)

T1: GST-tagged ATGL(300–504) (human, UniProt Q96AD5 300-504)
T1 construct: source: E. coli BL21(DE3), purified (glutathione Sepharose 4B, Sephacryl S-200)
T1 sequence (looked up): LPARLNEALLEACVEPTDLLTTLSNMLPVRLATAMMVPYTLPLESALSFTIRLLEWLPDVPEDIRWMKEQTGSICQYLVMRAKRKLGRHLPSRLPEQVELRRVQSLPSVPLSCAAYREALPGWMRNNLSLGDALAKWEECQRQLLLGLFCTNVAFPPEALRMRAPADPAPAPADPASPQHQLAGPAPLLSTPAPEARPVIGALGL


Assays:
GST-tagged ATGL(300–504) = target: T1, GST-tagged ATGL(300–504); test: pull-down; quantitative: 0.1 nmole His-Sec7-GBF1(710–894) immobilised on Ni Sepharose, 1–20 µM GST-tagged ATGL(300–504) added; anti-GST immunoblot, bound versus free, Scatchard analysis; apparent Kd; settings: both partners purified
[1] = target: Venus-tagged full-length GBF1 D544A (human) (UniProt Q92538); test: co-IP; Cos7 cells co-transfected with HA-tagged ATGL constructs and Venus-tagged constructs; IP with anti-GFP, blot with anti-HA; lysis in 50 mM Tris-HCl pH 7.5, 100 mM NaCl, 1 mM EDTA, 0.5% NP40; 4°C
Chain of Venus-tagged full-length GBF1 D544A (human) (Q92538 other isoform, or with tags, fused parts or gaps, stated change not applied): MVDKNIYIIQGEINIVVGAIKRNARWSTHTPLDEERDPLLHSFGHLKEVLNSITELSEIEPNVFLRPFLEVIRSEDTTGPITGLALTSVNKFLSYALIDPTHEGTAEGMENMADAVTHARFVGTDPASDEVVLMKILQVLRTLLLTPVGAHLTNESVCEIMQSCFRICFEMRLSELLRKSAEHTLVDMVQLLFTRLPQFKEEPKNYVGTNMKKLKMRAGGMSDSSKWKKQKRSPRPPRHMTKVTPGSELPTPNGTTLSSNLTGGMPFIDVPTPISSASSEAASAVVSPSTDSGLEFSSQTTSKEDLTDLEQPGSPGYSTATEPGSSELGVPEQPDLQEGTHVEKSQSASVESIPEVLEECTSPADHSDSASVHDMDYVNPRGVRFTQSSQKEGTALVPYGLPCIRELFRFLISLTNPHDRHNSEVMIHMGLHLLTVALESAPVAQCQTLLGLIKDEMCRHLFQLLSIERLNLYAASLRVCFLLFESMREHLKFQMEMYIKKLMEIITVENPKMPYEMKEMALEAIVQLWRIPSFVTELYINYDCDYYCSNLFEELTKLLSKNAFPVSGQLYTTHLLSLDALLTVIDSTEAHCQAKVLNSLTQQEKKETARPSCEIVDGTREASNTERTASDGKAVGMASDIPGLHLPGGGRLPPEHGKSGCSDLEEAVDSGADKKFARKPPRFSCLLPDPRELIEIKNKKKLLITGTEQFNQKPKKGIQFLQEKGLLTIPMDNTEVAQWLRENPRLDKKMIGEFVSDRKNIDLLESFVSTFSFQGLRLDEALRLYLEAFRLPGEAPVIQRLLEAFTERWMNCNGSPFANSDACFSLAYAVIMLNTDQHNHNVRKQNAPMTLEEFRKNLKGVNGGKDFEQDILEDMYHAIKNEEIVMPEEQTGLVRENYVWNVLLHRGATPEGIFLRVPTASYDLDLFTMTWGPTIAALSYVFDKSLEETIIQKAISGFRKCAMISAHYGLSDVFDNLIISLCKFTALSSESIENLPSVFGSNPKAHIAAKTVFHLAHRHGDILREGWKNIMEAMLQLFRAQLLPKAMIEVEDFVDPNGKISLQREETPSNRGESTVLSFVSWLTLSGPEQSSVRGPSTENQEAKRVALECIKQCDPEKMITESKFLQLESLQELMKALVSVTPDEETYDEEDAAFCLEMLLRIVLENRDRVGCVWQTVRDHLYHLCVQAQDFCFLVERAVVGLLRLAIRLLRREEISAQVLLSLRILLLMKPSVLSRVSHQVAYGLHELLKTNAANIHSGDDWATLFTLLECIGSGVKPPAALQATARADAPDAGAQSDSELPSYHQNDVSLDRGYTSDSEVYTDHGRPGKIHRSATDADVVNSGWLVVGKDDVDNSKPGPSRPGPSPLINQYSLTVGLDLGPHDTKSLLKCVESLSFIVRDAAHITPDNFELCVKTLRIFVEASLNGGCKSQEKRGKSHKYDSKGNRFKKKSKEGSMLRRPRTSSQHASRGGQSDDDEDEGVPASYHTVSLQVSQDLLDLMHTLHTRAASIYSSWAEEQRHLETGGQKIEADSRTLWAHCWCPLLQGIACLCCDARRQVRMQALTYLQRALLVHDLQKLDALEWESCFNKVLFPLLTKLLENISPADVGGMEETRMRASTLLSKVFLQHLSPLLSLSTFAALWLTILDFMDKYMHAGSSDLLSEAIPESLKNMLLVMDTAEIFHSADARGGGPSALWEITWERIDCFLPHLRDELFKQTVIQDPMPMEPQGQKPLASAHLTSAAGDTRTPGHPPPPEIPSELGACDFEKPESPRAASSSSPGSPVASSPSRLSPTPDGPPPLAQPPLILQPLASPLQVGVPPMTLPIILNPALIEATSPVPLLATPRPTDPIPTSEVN

Venus-ΔDCB-GBF1 (human) = test: as above
Chain of Venus-ΔDCB-GBF1 (human) (Q92538 whole entry, stated change not applied, the tested form may be a part): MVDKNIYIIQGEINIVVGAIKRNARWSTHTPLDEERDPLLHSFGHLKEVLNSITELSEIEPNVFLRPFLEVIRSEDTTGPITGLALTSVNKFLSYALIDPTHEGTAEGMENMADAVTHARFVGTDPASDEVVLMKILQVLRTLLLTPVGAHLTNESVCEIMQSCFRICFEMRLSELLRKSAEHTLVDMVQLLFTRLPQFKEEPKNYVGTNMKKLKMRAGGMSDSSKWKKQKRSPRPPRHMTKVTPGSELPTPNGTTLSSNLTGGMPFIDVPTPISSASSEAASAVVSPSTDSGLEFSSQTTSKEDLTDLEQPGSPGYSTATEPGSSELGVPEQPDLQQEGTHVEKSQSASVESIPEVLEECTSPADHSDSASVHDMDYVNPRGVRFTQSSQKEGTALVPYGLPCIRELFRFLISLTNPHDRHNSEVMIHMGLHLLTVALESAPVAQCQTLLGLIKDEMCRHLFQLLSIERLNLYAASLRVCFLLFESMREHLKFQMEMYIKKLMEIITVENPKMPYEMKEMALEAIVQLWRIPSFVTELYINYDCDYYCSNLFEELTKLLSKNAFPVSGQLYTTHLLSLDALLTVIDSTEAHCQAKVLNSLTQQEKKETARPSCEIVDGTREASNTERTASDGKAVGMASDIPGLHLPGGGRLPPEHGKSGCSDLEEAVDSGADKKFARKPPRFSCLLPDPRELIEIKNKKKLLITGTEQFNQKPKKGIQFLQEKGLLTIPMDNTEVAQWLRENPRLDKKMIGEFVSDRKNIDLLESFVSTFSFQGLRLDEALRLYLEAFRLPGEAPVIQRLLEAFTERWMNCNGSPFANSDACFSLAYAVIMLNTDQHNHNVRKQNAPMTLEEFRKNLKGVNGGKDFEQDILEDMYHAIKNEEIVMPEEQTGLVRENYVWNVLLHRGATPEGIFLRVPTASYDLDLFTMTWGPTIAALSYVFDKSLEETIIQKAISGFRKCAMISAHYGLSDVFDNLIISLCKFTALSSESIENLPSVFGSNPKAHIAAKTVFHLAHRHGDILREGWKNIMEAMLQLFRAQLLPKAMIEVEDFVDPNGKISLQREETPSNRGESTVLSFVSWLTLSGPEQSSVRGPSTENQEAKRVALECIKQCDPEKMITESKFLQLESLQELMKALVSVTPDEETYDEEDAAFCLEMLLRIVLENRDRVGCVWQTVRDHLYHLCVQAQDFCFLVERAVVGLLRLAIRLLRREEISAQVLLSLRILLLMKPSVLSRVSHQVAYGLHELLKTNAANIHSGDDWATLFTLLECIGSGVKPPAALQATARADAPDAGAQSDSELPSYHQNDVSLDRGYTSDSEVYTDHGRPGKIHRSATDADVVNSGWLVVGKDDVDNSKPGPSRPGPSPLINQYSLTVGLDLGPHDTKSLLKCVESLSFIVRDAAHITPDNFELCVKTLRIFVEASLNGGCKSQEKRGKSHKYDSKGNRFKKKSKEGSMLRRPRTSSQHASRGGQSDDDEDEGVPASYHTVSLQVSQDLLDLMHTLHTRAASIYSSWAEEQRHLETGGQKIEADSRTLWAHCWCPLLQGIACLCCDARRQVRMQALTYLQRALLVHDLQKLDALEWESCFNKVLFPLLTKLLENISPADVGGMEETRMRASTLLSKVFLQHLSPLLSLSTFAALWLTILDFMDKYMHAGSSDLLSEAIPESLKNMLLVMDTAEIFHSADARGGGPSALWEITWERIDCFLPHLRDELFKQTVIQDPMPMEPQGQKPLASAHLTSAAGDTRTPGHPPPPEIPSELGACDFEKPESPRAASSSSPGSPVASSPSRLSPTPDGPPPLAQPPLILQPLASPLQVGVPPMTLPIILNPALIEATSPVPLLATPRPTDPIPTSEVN

[2] = target: Venus-tagged GBF1 HDS1 domain (human); test: as above
Chain of Venus-tagged GBF1 HDS1 domain (human) (Q92538 688-888): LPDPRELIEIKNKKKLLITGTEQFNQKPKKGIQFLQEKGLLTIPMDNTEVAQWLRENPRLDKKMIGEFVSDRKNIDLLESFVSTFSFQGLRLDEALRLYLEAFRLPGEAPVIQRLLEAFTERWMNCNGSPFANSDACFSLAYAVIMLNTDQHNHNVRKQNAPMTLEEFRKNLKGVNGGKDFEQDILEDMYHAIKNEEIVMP

[3] = target: Venus-tagged N-GBF1 D544A (human); test: as above

| Kd (GST-tagged ATGL(300–504)) [nM] | fold level of interaction over wild type GBF1 [1] [fold] | fold level of interaction over wild type GBF1 (Venus-ΔDCB-GBF1 (human)) [fold] | percent of ATGL recovered in the co-IP [2] [%] | fold level of interaction over the wild type N-terminal region [3] [fold] | Binder |
| --- | --- | --- | --- | --- | --- |
| 2500 ± 300 | – | – | – | – | His-Sec7-GBF1(710–894) (domain or fragment, human, UniProt Q92538-1 710-894, looked up, Sec7 domain, residues 710-894; the end of the His tag is read from the printed name; vector pBAD/His C; also called His-tagged Sec7 domain of GBF1; His-Sec7-GBF1 fragment; not shown: His tag, N-terminal, kept) FNQKPKKGIQFLQEKGLLTIPMDNTEVAQWLRENPRLDKKMIGEFVSDRKNIDLLESFVSTFSFQGLRLDEALRLYLEAFRLPGEAPVIQRLLEAFTERWMNCNGSPFANSDACFSLAYAVIMLNTDQHNHNVRKQNAPMTLEEFRKNLKGVNGGKDFEQDILEDMYHAIKNEEIVMPEEQTGLV |
| – | 10 | 10 | 10 | 5 to 10 | HA-tagged H. sapiens ATGL (full-length) (natural protein) MFPREKTWNISFAGCGFLGVYYVGVASCLREHAPFLVANATHIYGASAGALTATALVTGVCLGEAGAKFIEVSKEARKRFLGPLHPSFNLVKIIRSFLLKVLPADSHEHASGRLGISLTRVSDGENVIISHFNSKDELIQANVCSGFIPVYCGLIPPSLQGVRYVDGGISDNLPLYELKNTITVSPFSGESDICPQDSSTNIHELRVTNTSIQFNLRNLYRLSKALFPPEPLVLREMCKQGYRDGLRFLQRNGLLNRPNPLLALPPARPHGPEDKDQAVESAQAEDYSQLPGEDHILEHLPARLNEALLEACVEPTDLLTTLSNMLPVRLATAMMVPYTLPLESALSFTIRLLEWLPDVPEDIRWMKEQTGSICQYLVMRAKRKLGRHLPSRLPEQVELRRVQSLPSVPLSCAAYREALPGWMRNNLSLGDALAKWEECQRQLLLGLFCTNVAFPPEALRMRAPADPAPAPADPASPQHQLAGPAPLLSTPAPEARPVIGALGL |
